Source: patent publication US20060246071A1
Residue numbers refer to the chain shown, from its start.

B1: mAb 5.2.1 (antibody, part only; not given: light chain, V domains shown, part only)
VH: QVQLVESGGGVVQPGRSLRLSCAASGFTFSSYGMHWVRQAPGKGLEWVAVIWFDGFNKYYADSVKGRFTISRDNSKNTLYLQMNSLRAEDTAVYHCARDRGYSGYDHYYGMDVWGQGTTVTVSSA
B2: mAb 3.28.1 (antibody, part only; not given: light chain, V domains shown, part only)
VH: EVQLVESGGGLVQPGGSLRLSCAASGFTFSSSWMSWVRQAPGKGLEWVANIKQDGSDKYYVDSVKGRFTISRDNAKNSLYLQMNSLRAEDTAVYYCVRDKGSGWFDYWGQGTLVTVSSA
B3: mAb 5.39.1 (antibody, V domains shown)
VH: QVQLVQSGAEVTKPGASVKVSCKASGYTFTAYHMYWVRQAPGQGLEWMGWINPNSGGTNYAQKFQGRVTMTRDTSISTAYMELSRLRSDDSPVYYCARDQGIAAAGPFDYWGQGTLVTVSS
VL: EIVMTQSPATLSVSPGDRATLSCRASQSVSSNFAWYQQKPGQAPRLLIYGSSTRATGIPARFSGSGSGTEFTLTISSLQSEDFAVYYCQQYHYWWTFGQGTKVEFKR
B4: mAb 5.88.3 (antibody, V domains shown)
VH: EVQMVESGGGLVQPGGSLRLSCAASGFTLRSYWMSWVRQAPGKGLEWVANIKEDGSEKYHVDSVKGRFTISRDNAENSLFLQMSSLRAEDTAVYYCARDMEASAGLFDYWGQGTLVTVSS
VL: B3 VL with D17E, T20I, V29I, F33L, S51A, H92N, F105I
B5: mAb 3.3.2 (antibody, V domains shown)
VH: EVQLVESGGGLVQPGGSLRLSCAVSGFTFSSYWMSWVRQAPGKGLEWVANIKQDGSEKYYVDSVKGRFTISRDNAKNSLYLQMNSLRAEDTAVYYCARDQGIAVAGPFDYWGQGTLVTVSS
VL: B3 VL with D17E, S28T, N32D, F33L, S51A, T53I, Y87S, H92Y, Y93N, F105I
B6: mAb 5.62.1 (antibody, V domains shown)
VH: B5 VH with V24A, Q100P
VL: B3 VL with D17E, F33L, S51A, S52F, H92N, Y93H, E104G, F105I
B7: mAb 5.86.1 (antibody, V domains shown)
VH: B3 VH with T12K, A31G, M48L, S91T, P92A, A97V, G112C
VL: DIRMTQSPSSLSASVGDRVTITCRASQRISTYLNWYQQKPGKAPKFLIYAASSLQSGVPSRFSGSGSGTDFTLTISSLQPEDFATYYCQQSYTTPFTFGPGTKVDIKR
B8: mAb 5.28.1 (antibody, V domains shown)
VH: EVQLVESGGIVVQPGGSLRLSCAASGFTFDDYTMHWVRQTPGKGLEWVSLISWDGGSTYYADSVKGRFTISRDNSKNSLYLQMNSLRTEDTALYYCAKDIDIAVAGTGFDHWGQGTLVTVSS
VL: EIVMTQSPATLSVSPGERATLSCRASQSVTSNLAWYQQKPGQAPRLLIYGALIRATGIPARFSGSGSGTEFTLTISSLQSEDFAVYYCQQYNNWPFTFGPGTKVDIKR
B9: mAb 6.3.1 (antibody, V domains shown)
VH: QVQLVQSGAEVKKPGASVKVSCKASGYTFTGYFMHWVPQAPGQGLEWMGWINPNSGGTNYAQNFQGRVTMTRDTSISTAYMELSRLRSDDTPVYYCARDPWQNWNSYFDYWGQGTLVTVSS
VL: DIQMTQSPSSLSASVGDRVTITCRASQSIRSYLNWYQQKPGKAPKVLIYAASSLQSGVPSRFSGSGSGTDFTLTISSLQPEDFATYYCQQSYSTLCSFGQGTKLEIKR

Target: recombinant human Angiopoietin-2 (human) (UniProt O15123)
Sequence (O15123 19-496 limits assumed): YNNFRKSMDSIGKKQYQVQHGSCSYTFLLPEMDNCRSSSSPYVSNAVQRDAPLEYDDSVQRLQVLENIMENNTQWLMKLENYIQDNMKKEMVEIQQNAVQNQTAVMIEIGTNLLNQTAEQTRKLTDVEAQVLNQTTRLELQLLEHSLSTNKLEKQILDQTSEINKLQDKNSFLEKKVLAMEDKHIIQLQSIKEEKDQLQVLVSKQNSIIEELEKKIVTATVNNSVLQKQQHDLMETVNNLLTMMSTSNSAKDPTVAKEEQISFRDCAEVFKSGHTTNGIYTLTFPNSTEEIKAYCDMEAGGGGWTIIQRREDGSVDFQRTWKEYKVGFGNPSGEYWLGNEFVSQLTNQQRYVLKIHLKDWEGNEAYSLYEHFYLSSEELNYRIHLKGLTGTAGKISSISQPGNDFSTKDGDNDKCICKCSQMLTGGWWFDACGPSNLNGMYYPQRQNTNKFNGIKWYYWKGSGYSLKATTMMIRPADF
Assay: inhibition of rhAng-2 binding to its receptor

Row | OD650 in inibition assay | Binder
1 | 0.069 OD650 | B1
2 | 0.0588 OD650 | B2

Target: mouse Angiopoietin-2 (mouse) (UniProt O35608)
Sequence (O35608 19-496 S348N/G411A limits assumed): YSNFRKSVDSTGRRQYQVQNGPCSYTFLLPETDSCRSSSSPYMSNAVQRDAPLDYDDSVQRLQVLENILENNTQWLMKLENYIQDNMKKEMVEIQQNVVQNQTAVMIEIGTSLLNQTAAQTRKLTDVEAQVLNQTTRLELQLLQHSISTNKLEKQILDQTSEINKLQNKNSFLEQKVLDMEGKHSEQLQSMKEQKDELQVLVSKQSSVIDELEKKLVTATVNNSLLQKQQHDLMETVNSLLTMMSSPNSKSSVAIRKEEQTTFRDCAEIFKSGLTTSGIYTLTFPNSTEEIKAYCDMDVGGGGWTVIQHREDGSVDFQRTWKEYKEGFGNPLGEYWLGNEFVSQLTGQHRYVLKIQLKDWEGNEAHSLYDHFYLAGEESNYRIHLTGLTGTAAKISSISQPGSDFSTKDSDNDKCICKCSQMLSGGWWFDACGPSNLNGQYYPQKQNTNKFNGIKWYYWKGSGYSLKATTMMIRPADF
Assay: ELISA titration, mouse Ang-2 supernatant coated

Row | antibody concentration at saturation | Binder
3 | 10 µg/mL | B1

Target: recombinant human Angiopoietin-2 (human) (UniProt O15123)
Assay: Biacore, mAb captured; kd held constant in fit

Row | koff | Binder
4 | 1e-05 s⁻¹ | B1
5 | 1e-05 s⁻¹ | B2

Target: recombinant human Angiopoietin-2 (human) (UniProt O15123)
Assay: Biacore, mAb captured

Row | Kd | kon | Binder
6 | 0.062 nM | 160000 M⁻¹ s⁻¹ | B1
7 | 0.037 nM | 270000 M⁻¹ s⁻¹ | B2

Target: human Ang-2 H375Q (human) (UniProt O15123)
Sequence (O15123 19-496, stated change not applied): as the sequence (O15123 19-496 limits assumed) above
Assay: ELISA

Row | percent binding compared to human Ang-2 | Binder
8 | 100% | B1
9 | 100% | B3
10 | 100% | B4
11 | 100% | B5
12 | 100% | B6
13 | 100% | B7
14 | 100% | B2
15 | 100% | B8
16 | 100% | B9

Target: mouse Angiopoietin-2 (mouse) (UniProt O35608)
Assay: ELISA

Row | percent of their immunoreactivity on human Ang-2 | Binder
17 | 100% | B1

Target: Human Ang-1/2 BsmI chimera (human)
Assay: ELISA

Row | percent binding compared to human Ang-2 | Binder
18 | 100% | B1
19 | 100% | B3
20 | 100% | B4
21 | 100% | B5
22 | 100% | B6
23 | 100% | B7
24 | 100% | B2
25 | 100% | B8
26 | 100% | B9

Target: Mouse/Human Ang-2 StuI chimera (mouse; human) (UniProt O35608)
Sequence (O35608 other isoform, or with tags, fused parts or gaps mutant): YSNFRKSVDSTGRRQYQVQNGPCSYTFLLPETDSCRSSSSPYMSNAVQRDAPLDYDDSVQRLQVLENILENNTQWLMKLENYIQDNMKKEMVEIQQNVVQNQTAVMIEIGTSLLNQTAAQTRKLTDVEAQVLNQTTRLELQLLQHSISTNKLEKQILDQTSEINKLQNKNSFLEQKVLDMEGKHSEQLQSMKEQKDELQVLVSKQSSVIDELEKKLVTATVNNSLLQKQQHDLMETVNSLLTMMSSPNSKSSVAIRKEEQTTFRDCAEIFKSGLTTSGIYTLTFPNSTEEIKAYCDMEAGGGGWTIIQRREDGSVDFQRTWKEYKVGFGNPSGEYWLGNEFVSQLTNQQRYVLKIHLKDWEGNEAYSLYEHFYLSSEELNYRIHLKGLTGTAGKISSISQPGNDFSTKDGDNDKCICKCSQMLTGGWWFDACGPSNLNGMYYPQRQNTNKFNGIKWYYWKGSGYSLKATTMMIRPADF
Assay: ELISA

Row | percent binding compared to human Ang-2 | Binder
27 | 100% | B1
28 | 100% | B2

Target: human Ang-2443 (human) (UniProt O15123)
Sequence (O15123 other isoform, or with tags, fused parts or gaps): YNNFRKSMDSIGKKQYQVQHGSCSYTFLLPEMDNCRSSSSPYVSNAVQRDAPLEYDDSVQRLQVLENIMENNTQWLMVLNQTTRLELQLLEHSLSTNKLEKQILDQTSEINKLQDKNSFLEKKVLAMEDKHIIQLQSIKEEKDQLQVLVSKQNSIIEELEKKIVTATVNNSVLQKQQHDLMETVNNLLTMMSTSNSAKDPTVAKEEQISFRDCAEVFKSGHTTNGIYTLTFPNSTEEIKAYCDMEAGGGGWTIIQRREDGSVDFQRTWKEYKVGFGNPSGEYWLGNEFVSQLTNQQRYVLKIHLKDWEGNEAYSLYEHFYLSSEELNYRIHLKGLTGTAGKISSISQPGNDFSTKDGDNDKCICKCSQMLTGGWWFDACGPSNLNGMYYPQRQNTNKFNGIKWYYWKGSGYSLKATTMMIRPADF
Assay: ELISA

Row | percent binding compared to human Ang-2 | Binder
29 | 100% | B1
30 | 100% | B2

Target: human Ang-2 V345M (human) (UniProt O15123)
Sequence (O15123 19-496, stated change not applied): as the sequence (O15123 19-496 limits assumed) above
Assay: ELISA

Row | percent binding compared to human Ang-2 | Binder
31 | 100% | B1
32 | 100% | B3
33 | 100% | B4
34 | 100% | B5
35 | 100% | B6
36 | 100% | B7
37 | 100% | B2
38 | 100% | B8
39 | 100% | B9

Target: Mouse/Human chimeric Ang-2 with human StuI-TfiI fragment (residues 310-400) (mouse with human residues 310-400) (UniProt O35608)
Sequence (O35608 other isoform, or with tags, fused parts or gaps mutant limits assumed): as the sequence (O35608 other isoform, or with tags, fused parts or gaps mutant) above, with K386T, G393A, N403S, G410S, T424S, M440Q, R445K counted along it
Assay: ELISA

Row | percent binding compared to human Ang-2 | Binder
40 | 100% | B1
41 | 31% | B2

Target: human Ang-2 mutated at positions 365 and 367 (human) (UniProt O15123)
Sequence (O15123 19-496, change not shown): as the sequence (O15123 19-496 limits assumed) above
Assay: ELISA

Row | percent binding compared to human Ang-2 | Binder
42 | 100% | B1
43 | 100% | B3
44 | 100% | B4
45 | 100% | B5
46 | 100% | B6
47 | 100% | B7
48 | 100% | B2
49 | 100% | B8
50 | 100% | B9
